Results on one substance are retold here after PMC547899.

The target in this experiment is SMC3-474/702 hinge domain (GAL4:SMC3 fusion in pBIND) (UniProt Q9CW03). Briefly: two-hybrid; mammalian two-hybrid (Promega Checkmate) in 293 cells: SMC3-474/702 in pBIND, SMC1-474/663 in pACT, pG5/luc reporter, with Hinderin-V5 expression vector (0.3 or 1 ug/ml) or empty pcDNA3.1; luciferase after 48 h, corrected by Renilla.
Sequence of UniProt Q9CW03 (Q9CW03 474-702): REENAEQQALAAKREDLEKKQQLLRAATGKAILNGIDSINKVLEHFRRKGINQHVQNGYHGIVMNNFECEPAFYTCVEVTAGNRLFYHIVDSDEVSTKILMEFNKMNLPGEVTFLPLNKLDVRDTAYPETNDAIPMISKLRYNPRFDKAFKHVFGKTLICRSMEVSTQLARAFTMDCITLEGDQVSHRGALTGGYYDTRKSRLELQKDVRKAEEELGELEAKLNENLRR

Substance “Hinderin-V5 (complete Hinderin coding region with V5 tag) (from UniProt Q86T90 1-577) (natural protein)” displayed an SMC1/SMC3 interaction (luciferase activity) in cells overexpressing Hinderin, percent of 34%.
